Variants at the floor of the assay were thinned out.
B1: TPR 5TU (parent)
chain: GGAUCUUCUCGAUCUAACAAAAAAGACAAAUCUGCCACAAAGCUUGAGAGCAUCUUCGGAUGCAGAGGCGGCAGCCUUCGGUGGCGCGAUAGCGCCAACGUUCUCAACUAUGACACGCAAAACGCGUGCUCCGUUGAAUGGAGUUUAUCAUG

Variants of: B1
Test: polymerase ribozyme fitness, log enrichment relative to wild type (log ratio); higher = more active; in vitro selection for triplet polymerase activity
In short: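 Both subunits of a heterodimeric triplet polymerase ribozyme were given their own mutant library, built by PCR and transcribed. Each library was annealed with a biotinylated primer, the partner subunit and triplets, incubated frozen at −7 °C, and its extended constructs gel-excised, captured on streptavidin beads and amplified by RT-PCR, all in one round done in triplicate. Fitness is the logarithm of genotype enrichment relative to wild-type enrichment, with replicates averaged by inverse-variance weighting. That logarithm is base 2, and Illumina-sequenced genotypes needed ≥10 input reads and ≥1 read per output.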
With G50C C87U G100A the “polymerase ribozyme fitness (log ratio)” value was ≤ -4.2. With A49G A91G A142C the “polymerase ribozyme fitness (log ratio)” value was -3.71. In the case of G50U U55A G126U, the “polymerase ribozyme fitness (log ratio)” value is reported as -0.316. For A52C C57U G86U C99U C118U C125G G143A U151A, the “polymerase ribozyme fitness (log ratio)” value was ≤ -4.2. In the case of C51G G58U C93G C123U, the “polymerase ribozyme fitness (log ratio)” value is reported as ≤ -4.2. For C51A C85U C103G G124A U145G A150G, the “polymerase ribozyme fitness (log ratio)” value was ≤ -4.2. In the case of C51A C75U A98U, the “polymerase ribozyme fitness (log ratio)” value is reported as -3.28. In the case of G50U G126C A138U, the “polymerase ribozyme fitness (log ratio)” value is reported as ≤ -4.2. In the case of G50A C57A U127A G143U, the “polymerase ribozyme fitness (log ratio)” value is reported as -4.04. For G50A A52G C76U A98G C123G, the “polymerase ribozyme fitness (log ratio)” value was -2.81. For A49U C76A U77G C95G C96U C108U A142G, the “polymerase ribozyme fitness (log ratio)” value was ≤ -4.2. With A52C A66G C72A A97U C99A the “polymerase ribozyme fitness (log ratio)” value was ≤ -4.2. For A49U U55G G58A C123A G126U U148A, the “polymerase ribozyme fitness (log ratio)” value was ≤ -4.2. In the case of C51U G58C G62U C69U C96G, the “polymerase ribozyme fitness (log ratio)” value is reported as -3.67. For G50U A60U C76A G80U U101G A107U, the “polymerase ribozyme fitness (log ratio)” value was ≤ -4.2. With C51U C93G C116U G141A the “polymerase ribozyme fitness (log ratio)” value was -3.75. In the case of C51G G62U G92A C96A, the “polymerase ribozyme fitness (log ratio)” value is reported as ≤ -4.2. In the case of A49C U56A A113U G152U, the “polymerase ribozyme fitness (log ratio)” value is reported as -3.93. With G50C G68U C85U G92U A106G the “polymerase ribozyme fitness (log ratio)” value was ≤ -4.2. For G50C G83A, the “polymerase ribozyme fitness (log ratio)” value was -3.65. In the case of C51G G136U U144G, the “polymerase ribozyme fitness (log ratio)” value is reported as -2.56. In the case of A49G G88U C96G U144C U148C U151G, the “polymerase ribozyme fitness (log ratio)” value is reported as ≤ -4.2. With C51U G86C the “polymerase ribozyme fitness (log ratio)” value was -2.98. With G50C G86A the “polymerase ribozyme fitness (log ratio)” value was ≤ -4.2. In the case of G50C G94A U127C G133U A138C, the “polymerase ribozyme fitness (log ratio)” value is reported as ≤ -4.2. In the case of C51A C95U A119G, the “polymerase ribozyme fitness (log ratio)” value is reported as -1.34. In the case of A49G U53C C114U, the “polymerase ribozyme fitness (log ratio)” value is reported as -2.54. With A49C G141U the “polymerase ribozyme fitness (log ratio)” value was -3.13. With C51U A52G C76A A89G A97C C105U A119C G141U the “polymerase ribozyme fitness (log ratio)” value was ≤ -4.2. With A49C U134G the “polymerase ribozyme fitness (log ratio)” value was ≤ -4.2. In the case of C51U G84C C87A C95A A122C A137U G141C, the “polymerase ribozyme fitness (log ratio)” value is reported as ≤ -4.2. With G50A U56A G86A the “polymerase ribozyme fitness (log ratio)” value was -3.11. With C51U U61A G84U the “polymerase ribozyme fitness (log ratio)” value was -2.8. With G50A A73U C96G A98U A120U A137G the “polymerase ribozyme fitness (log ratio)” value was ≤ -4.2. With A49U G59A A122U the “polymerase ribozyme fitness (log ratio)” value was -0.783. With A52C A66C A91C A115G the “polymerase ribozyme fitness (log ratio)” value was ≤ -4.2. In the case of G50C G80C C93A A98U, the “polymerase ribozyme fitness (log ratio)” value is reported as ≤ -4.2. In the case of C51U G141A, the “polymerase ribozyme fitness (log ratio)” value is reported as 0.523. With G50A C93U A142U the “polymerase ribozyme fitness (log ratio)” value was -3.71. For C51G U55A, the “polymerase ribozyme fitness (log ratio)” value was -2.88. In the case of C51U G83U G86U G94A U135G U144G G152C, the “polymerase ribozyme fitness (log ratio)” value is reported as ≤ -4.2. With C51U G86C A113G C114U A121G U151G the “polymerase ribozyme fitness (log ratio)” value was ≤ -4.2. In the case of G50C G84A, the “polymerase ribozyme fitness (log ratio)” value is reported as -3.25. In the case of G50A C75U C96A A97U, the “polymerase ribozyme fitness (log ratio)” value is reported as ≤ -4.2. With C51A A91G the “polymerase ribozyme fitness (log ratio)” value was -3.53. In the case of G50U A60U C87U G94A U146A, the “polymerase ribozyme fitness (log ratio)” value is reported as ≤ -4.2. With G50C A66G C96U U146G the “polymerase ribozyme fitness (log ratio)” value was ≤ -4.2. In the case of A49G U53A U144G, the “polymerase ribozyme fitness (log ratio)” value is reported as -0.883. For A52C C57G G94A G100U U148A, the “polymerase ribozyme fitness (log ratio)” value was ≤ -4.2. In the case of C51A C93U, the “polymerase ribozyme fitness (log ratio)” value is reported as -2.22. For G50U C105U, the “polymerase ribozyme fitness (log ratio)” value was 0.638. In the case of A49U C85A, the “polymerase ribozyme fitness (log ratio)” value is reported as -1.86. With A49U C85U the “polymerase ribozyme fitness (log ratio)” value was -2.25. For G50U C57G, the “polymerase ribozyme fitness (log ratio)” value was 0.0255. For G50U A89U C93U C99U U145A, the “polymerase ribozyme fitness (log ratio)” value was -3.4. With G50A C125A the “polymerase ribozyme fitness (log ratio)” value was -1.79. In the case of G50U G74A C85U, the “polymerase ribozyme fitness (log ratio)” value is reported as -3.88. For C51U C95A U104C C116G, the “polymerase ribozyme fitness (log ratio)” value was -0.304. In the case of A49U G141A, the “polymerase ribozyme fitness (log ratio)” value is reported as -1.34. With G50U U78A the “polymerase ribozyme fitness (log ratio)” value was ≤ -4.2. For G50C A52G U77A G128U A142U, the “polymerase ribozyme fitness (log ratio)” value was ≤ -4.2. With C51U C93U U109G C116U the “polymerase ribozyme fitness (log ratio)” value was -3.68. With G50U U61A C93G C105U A107G the “polymerase ribozyme fitness (log ratio)” value was ≤ -4.2. With C51A G136A the “polymerase ribozyme fitness (log ratio)” value was -0.23. In the case of C51A G124A, the “polymerase ribozyme fitness (log ratio)” value is reported as -0.00389. In the case of G50A G133C, the “polymerase ribozyme fitness (log ratio)” value is reported as -3.28. For C51G U55G C108A A119U G124A G141A U146A, the “polymerase ribozyme fitness (log ratio)” value was ≤ -4.2. For G50A U56A C87U G124A, the “polymerase ribozyme fitness (log ratio)” value was -2.44. With C51U G58A G124C the “polymerase ribozyme fitness (log ratio)” value was -1.29. In the case of A52C C57G, the “polymerase ribozyme fitness (log ratio)” value is reported as -1.79. In the case of A52C C57U, the “polymerase ribozyme fitness (log ratio)” value is reported as -1.24. With C51A U56A C95A A98U the “polymerase ribozyme fitness (log ratio)” value was -1.46. For A49G A52C U56A A91G G92A A121G, the “polymerase ribozyme fitness (log ratio)” value was -3.9. For A49U A73G G86C A97U, the “polymerase ribozyme fitness (log ratio)” value was ≤ -4.2. In the case of G50U C87U, the “polymerase ribozyme fitness (log ratio)” value is reported as -1.51. For A49C G65U G84U C96U A121U C125G, the “polymerase ribozyme fitness (log ratio)” value was ≤ -4.2. For G50C U109G A113G A120C U130G, the “polymerase ribozyme fitness (log ratio)” value was ≤ -4.2. For A49C G50U U78G C85U A97G U102G A107U A142C, the “polymerase ribozyme fitness (log ratio)” value was ≤ -4.2. With C51A C63A G88U G126A the “polymerase ribozyme fitness (log ratio)” value was ≤ -4.2. For A49C G124U, the “polymerase ribozyme fitness (log ratio)” value was ≤ -4.2. In the case of G50C C54U U56A G59U, the “polymerase ribozyme fitness (log ratio)” value is reported as -3.48. In the case of A49G G50U C87G U144G, the “polymerase ribozyme fitness (log ratio)” value is reported as ≤ -4.2. With G50C A89G C99U A122G the “polymerase ribozyme fitness (log ratio)” value was ≤ -4.2. With G50C A98G the “polymerase ribozyme fitness (log ratio)” value was -3.37.
